According to PMC7261735:

How the values were obtained:
Experiment in all cases: SPR; Biacore T200; recombinant human TNFα immobilized on a CM5 chip, antibody captured through binding to TNFα; association and dissociation globally fit to a 1:1 binding model; average of 3 intra-assay replicates per lot
[1] = biological target: ABP 710
[2] = biological target: infliximab (EU)
[3] = biological target: infliximab (US)

Kd [1] [µM]	Kd [2] [µM]	Kd [3] [µM]	Substance
0.068 to 0.08	–	–	FcγRIIIa (158V)
–	0.059 to 0.089	0.063 to 0.093	FcγRIIIa (158V) (receptor)
